# Patent US20160220651A1 (UNIVERSITY OF PITTSBURGH OF THE COMMONWEALTH SYSTEM OF …, published 2016)
# Biological target: T1, HLA-A2 complexes expressed by T2 cells (human)
# T1 construct: whole, on cells; also called HLA-A2.1 class I molecule
# Test: T2 class I stabilization assay, flow cytometry
row,binding result,Binder
1,binds,"DIWDGIPHV (Synthetic peptide (Fmoc), >96% pure) [NRP2 214-222 peptide DIWDGIPHV]"
2,binds,"GLLRFVTAV (Synthetic peptide (Fmoc), >96% pure) [NRP1 331-339 peptide GLLRFVTAV]"
3,binds,"FLNKCETWV (Synthetic peptide (Fmoc), >96% pure) [DLK1 326-334 peptide FLNKCETWV]"
4,binds,"TLSNLSFPV (Synthetic peptide (Fmoc), >96% pure) [NG2 770-778 peptide TLSNLSFPV]"
5,binds,"RLLGNVLVCV (Synthetic peptide (Fmoc), >96% pure) [HBB 105-114 peptide RLLGNVLVCV]"
6,binds,"RLTPGVHEL (Synthetic peptide (Fmoc), >96% pure) [DLK1 269-277 peptide RLTPGVHEL]"
7,binds,"ILLWEIFTL (Synthetic peptide (Fmoc), >96% pure; also called PDGFRβ (891)) [PDGFRβ 890-898 peptide ILLWEIFTL]"
8,binds,"YLQVDLRFL (Synthetic peptide (Fmoc), >96% pure) [NRP2 328-336 peptide YLQVDLRFL]"
9,binds,"LILPLLFYL (Synthetic peptide (Fmoc), >96% pure) [NG2 2238-2246 peptide LILPLLFYL]"
10,binds,"NMLGMLSGL (Synthetic peptide (Fmoc), >96% pure) [NRP2 436-444 peptide NMLGMLSGL]"
11,binds,"VIAMFFWLL (Synthetic peptide (Fmoc), >96% pure) [VEGFR2 773-781 peptide VIAMFFWLL]"
12,binds,"ILGVLTSLV (Synthetic peptide (Fmoc), >96% pure) [DLK1 310-318 peptide ILGVLTSLV]"
13,binds,"RLLVVYPWT (Synthetic peptide (Fmoc), >96% pure) [HBB 31-39 peptide RLLVVYPWT]"
14,binds,"VLLGAVCGV (Synthetic peptide (Fmoc), >96% pure) [NRP1 869-877 peptide VLLGAVCGV]"
15,binds,"LAALPHSCL (Synthetic peptide (Fmoc), >96% pure) [RGS5 5-13 peptide LAALPHSCL]"
16,binds,"LLVPTCVFLV (Synthetic peptide (Fmoc), >96% pure) [TEM1 691-700 peptide LLVPTCVFLV]"
17,binds,"TLADFDPRV (Synthetic peptide (Fmoc), >96% pure) [EphA2 883-891 peptide TLADFDPRV]"
18,binds,"GMLGMVSGL (Synthetic peptide (Fmoc), >96% pure) [NRP1 433-441 peptide GMLGMVSGL]"
19,binds,"TLFWLLLTL (Synthetic peptide (Fmoc), >96% pure) [VEGFR1 770-778 peptide TLFWLLLTL]"
